Measured values published in US20240309060A1, “POLYPEPTIDE BAX/NPM INHIBITORS” (TRUSTEES OF BOSTON UNIVERSITY, priority 2023, published 2024).
Square brackets hold non-standard residues; d marks the D form. βAla = NCCC(=O)O

Columns and labels:
[1] = molecular target: human nucleophosmin 1 (NPM1) (human), P06748; assay: SPR on human NPM1, mean of at least three peptide concentrations below saturation
[2] = molecular target: human nucleophosmin 1 (NPM1) (human), P06748; assay: SPR on human NPM1, KD calculated as koff/kon

human nucleophosmin 1 (NPM1) (human), P06748, sequence (P06748 whole entry): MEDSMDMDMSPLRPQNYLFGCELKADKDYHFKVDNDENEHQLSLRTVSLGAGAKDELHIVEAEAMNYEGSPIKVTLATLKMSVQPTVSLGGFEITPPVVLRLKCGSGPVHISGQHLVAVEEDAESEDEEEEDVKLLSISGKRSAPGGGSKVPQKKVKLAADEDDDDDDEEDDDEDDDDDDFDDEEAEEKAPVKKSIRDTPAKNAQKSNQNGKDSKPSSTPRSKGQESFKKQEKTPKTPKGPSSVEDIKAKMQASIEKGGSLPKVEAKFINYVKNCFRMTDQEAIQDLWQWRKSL

| Binder | koff [1] [s⁻¹] | kon [1] [M⁻¹ s⁻¹] | Kd [2] [nM] |
| --- | --- | --- | --- |
| Ac-KKRRRKKRRRKKRRRK[βAla]TVTIFVAGVLTASLTIWKKMG-OH (SMILES CC[C@H](C)[C@H](NC(=O)[C@@H](NC(=O)[C@H](CC(C)C)NC(=O)[C@H](CO)NC(=O)[C@H](C)NC(=O)[C@@H](NC(=O)[C@H](CC(C)C)NC(=O)[C@@H](NC(=O)CNC(=O)[C@H](C)NC(=O)[C@@H](NC(=O)[C@H](Cc1ccccc1)NC(=O)[C@@H](NC(=O)[C@@H](NC(=O)[C@@H](NC(=O)[C@@H](NC(=O)CCNC(=O)[C@H](CCCCN)NC(=O)[C@H](CCCNC(=N)N)NC(=O)[C@H](CCCNC(=N)N)NC(=O)[C@H](CCCNC(=N)N)NC(=O)[C@H](CCCCN)NC(=O)[C@H](CCCCN)NC(=O)[C@H](CCCNC(=N)N)NC(=O)[C@H](CCCNC(=N)N)NC(=O)[C@H](CCCNC(=N)N)NC(=O)[C@H](CCCCN)NC(=O)[C@H](CCCCN)NC(=O)[C@H](CCCNC(=N)N)NC(=O)[C@H](CCCNC(=N)N)NC(=O)[C@H](CCCNC(=N)N)NC(=O)[C@H](CCCCN)NC(=O)[C@H](CCCCN)NC(C)=O)[C@@H](C)O)C(C)C)[C@@H](C)O)[C@@H](C)CC)C(C)C)C(C)C)[C@@H](C)O)[C@@H](C)O)C(=O)N[C@@H](Cc1c[nH]c2ccccc12)C(=O)N[C@@H](CCCCN)C(=O)N[C@@H](CCCCN)C(=O)N[C@@H](CCSC)C(=O)NCC(=O)O) [NPMB1-I-010] | 0.0616 | 73200 | 842 |
| Ac-RREEERREEERREEEK[βAla]TVTIFVAGVLTASLTIWKKMG-OH (SMILES CC[C@H](C)[C@H](NC(=O)[C@@H](NC(=O)[C@H](CC(C)C)NC(=O)[C@H](CO)NC(=O)[C@H](C)NC(=O)[C@@H](NC(=O)[C@H](CC(C)C)NC(=O)[C@@H](NC(=O)CNC(=O)[C@H](C)NC(=O)[C@@H](NC(=O)[C@H](Cc1ccccc1)NC(=O)[C@@H](NC(=O)[C@@H](NC(=O)[C@@H](NC(=O)[C@@H](NC(=O)CCNC(=O)[C@H](CCCCN)NC(=O)[C@H](CCC(=O)O)NC(=O)[C@H](CCC(=O)O)NC(=O)[C@H](CCC(=O)O)NC(=O)[C@H](CCCNC(=N)N)NC(=O)[C@H](CCCNC(=N)N)NC(=O)[C@H](CCC(=O)O)NC(=O)[C@H](CCC(=O)O)NC(=O)[C@H](CCC(=O)O)NC(=O)[C@H](CCCNC(=N)N)NC(=O)[C@H](CCCNC(=N)N)NC(=O)[C@H](CCC(=O)O)NC(=O)[C@H](CCC(=O)O)NC(=O)[C@H](CCC(=O)O)NC(=O)[C@H](CCCNC(=N)N)NC(=O)[C@H](CCCNC(=N)N)NC(C)=O)[C@@H](C)O)C(C)C)[C@@H](C)O)[C@@H](C)CC)C(C)C)C(C)C)[C@@H](C)O)[C@@H](C)O)C(=O)N[C@@H](Cc1c[nH]c2ccccc12)C(=O)N[C@@H](CCCCN)C(=O)N[C@@H](CCCCN)C(=O)N[C@@H](CCSC)C(=O)NCC(=O)O) [NPMB1-I-011] | 0.0299 | 88500 | 337 |
